Laboratory results taken from publication PMC8218332 (Cell, 2021).

Target: His-tagged SARS-CoV-2 RBD (Victoria RBD) (SARS-CoV-2, Victoria/Wuhan-Hu-1 (same …, UniProt P0DTC2))
Assay: BLI
Details: both partners purified

Binder | Kd [nM]
REGN10987 (antibody, V domains shown, source: provided by AstraZeneca; copies: 2 + 2) VH: QVQLVESGGGVVQPGRSLRLSCAASGFTFSNYAMYWVRQAPGKGLEWVAVISYDGSNKYYADSVKGRFTISRDNSKNTLYLQMNSLRTEDTAVYYCASGSDYGDYLLVYWGQGTLVTVSS VL: QSALTQPASVSGSPGQSITISCTGTSSDVGGYNYVSWYQQHPGKAPKLMIYDVSKRPSGVSNRFSGSKSGNTASLTISGLQSEDEADYYCNSLTSISTWVFGGGTKLTVL | 0.38
mAb 278 (antibody, V domains shown, copies: 2 + 2) VH: QVQLVQSGAEVKKPGASVKVSCKASGYIFIRYGISWVRQAPGQGLEWMGWISANNGYTNYAQKLQGRVTMTTDTSTSTAYMELRSLRSDDTAVYYCARDGGILTGYLDYFDHWGQGTLVTVSS VL: DIQMTQSPSSLSASVGDRLTITCRASQSIASYLNWYQQKPGKAPKLLIYAASSLQSGVPSRFSGSGSGTDFTLTISSLQPEDFATYHCQQSYSTLGITFGPGTKVDIK | 1.6
mAb 88 (antibody, V domains shown, copies: 2 + 2) VH: QLQLQESGPGLVKPSQTLSLTCTVSGGSISSGSYNWTWIRQPAGKGLEWIGRIYNSGSTNYNPSLKSRVTISVDTSKNQLSLKVRSVTAADTAVYYCARHCSGGTCYPKYYYGMDVWGQGTTVTVSS VL: QSALTQPPSVSEAPRQRVTISCSGSSSNIGNNAVNWYQQFPGKAPKLLIYYDDLLPSGVSDRFSGSKSGTSASLAISGVQSEDEADYYCAAWDDSLNVVVFGGGTKLTVL | 4.4
mAb 384 (antibody, V domains shown, copies: 2 + 2) VH: EVQLVESGGGLVKPGESLRLSCAASGFTFSDYYMTWIRQAPGKGLEWVSYIRSSGHTIYYADSVKGRFTISRDNAKNSLYLQMNSLRVEDTAVYYCARGGVLRFLEWPLNAFDIWGQGTMVTVSS VL: DIQLTQSPSSLSASVGDRVTITCRASQGISNYLAWYQQKPGKVPKLLIYAASTLQSGVPSRFSGSGSGTDFTLTISSLQPEDVATYYCQKYNNALGTFGQGTKVEIK | 0.65
mAb 222 (antibody, V domains shown, copies: 2 + 2) VH: EVQLVESGGGLIQPGGSLRLSCAASGLTVSSNYMSWVRQAPGKGLEWVSVIYSGGSTFYADSVKGRFTISRDNSKNTLYLQMNSLGAEDTAVYYCARGEGSPGNWFDPWGQGTLVTVSS VL: DVVMTQSPGTLSLSPGERATLSCRASQSVPSSYLAWYQQKPGQAPRLLIYGASTRATGIPDRFSGSGSGTDFTLTISRLEPEDFAVYYCQHYDTSPRFGGGTKVDIK | 0.25
mAb 316 (antibody, V domains shown, copies: 2 + 2) VH: not shown VL: QAVLTQPPSASGSPGQSVTISCTGTSSDVGGYNYVSWYQQHPGKAPKLMIYEVSKRPSGVPDRFSGSKSGNTASLTVSGLQAEDEADYYCSSYAGSNHWVFGGGTKLTVL | 0.38
